Measured values published in patent publication US20200399314A1 (MEDIKINE, published 2020).
Bridge positions count the residues as written; N and C are the ends. Ends that are not written are not given here.

T1: human IL-2Rα subunit (human, UniProt P01589 22-213, limits assumed)
T1 construct: also called CD25
T1 sequence (looked up): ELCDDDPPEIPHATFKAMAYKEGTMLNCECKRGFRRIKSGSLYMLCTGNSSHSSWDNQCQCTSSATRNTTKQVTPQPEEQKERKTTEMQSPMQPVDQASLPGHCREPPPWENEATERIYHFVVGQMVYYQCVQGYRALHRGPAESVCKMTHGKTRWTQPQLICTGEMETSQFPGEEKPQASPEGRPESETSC


biological target: T1, human IL-2Rα subunit

Row | Binder | IC50 [µM]
1 | TIKCGSSGWCWVEAG [SEQ ID NO 301] | < 100
2 | HEICCGPPGCHSCSVT [SEQ ID NO 294] | < 100
3 | VFCIGYGAAQSCHS [SEQ ID NO 82] | < 100
4 | FLHWPVYFCQVM [SEQ ID NO 4] | < 100
5 | CRVWCNQAECMCIF [SEQ ID NO 287] | < 100
6 | WVICSAVGCRPF (disulfide 4-9 (inferred)) [SEQ ID NO 31] | < 100
7 | WVICSALGCRPF [SEQ ID NO 35] | < 100
8 | IRCRYEKQSGICLF [SEQ ID NO 74] | < 100
9 | SGCRLSLLDGHCYF [SEQ ID NO 78] | < 100
10 | SWECVYMPGHQGCRLF [SEQ ID NO 101] | < 100
11 | TKLCLKSEPQACWSM [SEQ ID NO 53] | < 100
12 | CVACSSDGCSPIIC [SEQ ID NO 292] | < 100
13 | AICSEDEGGELCCWH [SEQ ID NO 293] | < 100
14 | RWECIYIPGRKGCTLQ [SEQ ID NO 99] | < 100
15 | QWSCVFSPGVRGCKLV (disulfide 4-13 (inferred)) [SEQ ID NO 97] | < 100
16 | VRLCRVGPGYESCPAN [SEQ ID NO 103] | < 100
17 | FWECVYSPGSRGCRMV (disulfide 4-13 (inferred)) [SEQ ID NO 93] | < 100
18 | YVTCRWGYGCTR [SEQ ID NO 42] | < 100
19 | RQCNCLSPGELVNCQQ [SEQ ID NO 298] | < 100
20 | GSRCYWDPGREVCIFK [SEQ ID NO 91] | < 100
21 | SKCVYDYNFGTCIF [SEQ ID NO 79] | < 100
22 | GFRCTYDPGTHSCWSI [SEQ ID NO 94] | < 100
23 | TTCCTSEGCHKCITL [SEQ ID NO 291] | < 100

Row | Binder | IC50 [µM]
24 | LSVCSCPPGQLYCMVE (disulfide (positions not given here); also: disulfide between two of the three Cys, which not given here) [SEQ ID NO 304] | < 100
25 | SRCSFDVTKQECVF (disulfide 3-12 (inferred)) [SEQ ID NO 288] | < 100
26 | KWICRLVPGNGACHSF [SEQ ID NO 95] | < 100
27 | WAYDWSCFRRRL [SEQ ID NO 3] | < 100
28 | PWVCEHYPGRRGCVLM (disulfide 4-13 (inferred)) [SEQ ID NO 96] | < 100
29 | VTQCFDGPGSFRCCYQ [SEQ ID NO 306] | < 100
30 | VSCRFRPDLGFCIF [SEQ ID NO 85] | < 100
31 | WVACSWDHGCRS (disulfide 4-10 (inferred)) [SEQ ID NO 43] | < 100
32 | TRCTVIGPPWSCRF [SEQ ID NO 81] | < 100
33 | SICCTPQLCHSCDG [SEQ ID NO 290] | < 100
34 | KLFCLRSGDRACWVV (disulfide 4-12 (inferred)) [SEQ ID NO 60] | < 100
35 | MRCILSPSREHCLF [SEQ ID NO 76] | < 100
36 | STWCCLHPGVGECQAV [SEQ ID NO 305] | < 100
37 | EQFCLVSDPMACWSL (disulfide 4-12 (inferred)) [SEQ ID NO 50] | < 100
38 | KYWCLRSEPDACFAT (disulfide 4-12 (inferred)) [SEQ ID NO 51] | < 100
39 | HVICSVNGGCRG [SEQ ID NO 44] | < 100
40 | SRCVMSLQLGACIF [SEQ ID NO 80] | < 100
41 | FIPWDEYFAQLL [SEQ ID NO 8] | < 100
42 | RVYCLASEPNSCWST [SEQ ID NO 52] | < 100
43 | VTQCFDGPGSFRCCYQ [SEQ ID NO 297] | < 100
44 | SLNCKTRPGLRWCTWT [SEQ ID NO 100] | < 100
45 | FVEWQAYFSQMM [SEQ ID NO 6] | < 100
46 | WVICSALGCKAW [SEQ ID NO 36] | < 100

Row | Binder | IC50 [µM]
47 | LSVCSCPPGQLYCMVE (disulfide (positions not given here); also: disulfide between two of the three Cys, which not given here) [SEQ ID NO 295] | < 100
48 | MVSCTDLGCVVVGGG [SEQ ID NO 299] | < 100
49 | RQCNCLSPGELVNCQQ [SEQ ID NO 307] | < 100
50 | STWCCLHPGVGECQAV [SEQ ID NO 296] | < 100
51 | LECQPYRGPLYYCQD [SEQ ID NO 289] | < 100
52 | LRCRLDTRDGTCRF [SEQ ID NO 75] | < 100
53 | HEICCGPPGCHSCSVT [SEQ ID NO 303] | < 100
54 | IKCRVLEAGTPCVF (disulfide 3-12 (inferred)) [SEQ ID NO 73] | < 100
55 | VVHCLQSGCYSVGSG [SEQ ID NO 300] | < 100
56 | YVLCSNRNGCRP [SEQ ID NO 41] | < 100
57 | FLPWPVYFSQVL [SEQ ID NO 5] | < 100
58 | VSCKIDRRSGSCLF (disulfide 3-12 (inferred)) [SEQ ID NO 84] | < 100
59 | VRMCYVAPGYVSCPRM [SEQ ID NO 104] | < 100
60 | NHCTMDWRLGACIF [SEQ ID NO 77] | < 100
61 | VRCLYDSITRTCTF [SEQ ID NO 83] | < 100
62 | EWECRFLPGRRGCSLF [SEQ ID NO 92] | < 100
63 | RSCNRYGIWGHCDT [SEQ ID NO 72] | < 100
64 | DRCDTRTWGYYCWI [SEQ ID NO 86] | < 100
65 | MVSCTDLGCVVVGGG [SEQ ID NO 302] | < 100
66 | RRFCLRSEPAACWFV [SEQ ID NO 67] | < 100
67 | RFICRIQPGREGCWSL [SEQ ID NO 98] | < 100
68 | VRFCRSGPGWVSCGTQ [SEQ ID NO 102] | < 100
